B1: MB815 (antibody, mouse IgG1, kappa)
heavy: QVQLQESGPGLVKPSETLSLTCAVSGHSISHDHAWSWVRQPPGEGLEWIGFISYSGITNYNPSLQGRVTISRDNSKNTLYLQMNSLRAEDTAVYYCARSLARTTAMDYWGEGTLVTVSSAKTTPPSVYPLAPGSAAQTNSMVTLGCLVKGYFPEPVTVTWNSGSLSSGVHTFPAVLQSDLYTLSSSVTVPSSTWPSETVTCNVAHPASSTKVDKKIVPRDCGCKPCICEPNEVELVFIFPPKPKDVLTITLTPKVTCVVVDISKDDPEVQFSWFVDDVEVHTAQTQPREEQFNSTFRSVSELPIMHQDWLNGKEFKCRVDSAAFPAPIYKTISKTKGRPKAPQVYTIPPPKEQMAKDKVSLTCMITDFFPEDITVEWQWNGQPAENYKNTQPIMDTDGSYFVYSKLNVQKSNWEAGNTFTCSVLHEGLHNHHTEKSLSHSPGK
light: not shown
notes: CH name; VH H237 + CH, L chain MRAL-k0; copies: 2 + 2
B2: MB816 (antibody, mouse IgG1, kappa)
heavy: QVQLQESGPGLVKPSETLSLTCAVSGHSISHDHAWSWVRQPPGEGLEWIGFISYSGITNYNPSLQGRVTISRDNSKNTLYLQMNSLRAEDTAVYYCARSLARTTAMDYWGEGTLVTVSSAKTTPPSVYPLAPGSAAQTNSMVTLGCLVKGYFPEPVTVTWNSGSLSSGVHTFPAVLQSDLYTLSSSVTVPSSTWPSETVTCNVAHPASSTKVDKKIVPRDCGCKPCICEPNEVELVFIFPPKPKDVLTITLTPKVTCVVVDISKDDPEVQFSWFVDDVEVHTAQTQPREEQFNSTFRSVSELPIMHQDWLNGKEFKCRVMSDAFPAPIEKTISKTKGRPKAPQVYTIPPPKEQMAKDKVSLTCMITDFFPEDITVEWQWNGQPAENYKNTQPIMDTDGSYFVYSKLNVQKSNWEAGNTFTCSVLHEGLHNHHTEKSLSHSPGK
light: not shown
notes: as for B1
B3: MB819 (antibody, mouse IgG1, kappa)
heavy: QVQLQESGPGLVKPSETLSLTCAVSGHSISHDHAWSWVRQPPGEGLEWIGFISYSGITNYNPSLQGRVTISRDNSKNTLYLQMNSLRAEDTAVYYCARSLARTTAMDYWGEGTLVTVSSAKTTPPSVYPLAPGSAAQTNSMVTLGCLVKGYFPEPVTVTWNSGSLSSGVHTFPAVLQSDLYTLSSSVTVPSSTWPSETVTCNVAHPASSTKVDKKIVPRDCGCKPCICEPNEVELVFIFPPKPKDVLTITLTPKVTCVVVDISKDDPEVQFSWFVDDVEVHTAQTQPREEQFNSTFRSVSELPIMHQDWLNGKEFKCRVMSAAFPAYIEKTISKTKGRPKAPQVYTIPPPKEQMAKDKVSLTCMITDFFPEDITVEWQWNGQPAENYKNTQPIMDTDGSYFVYSKLNVQKSNWEAGNTFTCSVLHEGLHNHHTEKSLSHSPGK
light: not shown
notes: as for B1
B4: MB821 (antibody, mouse IgG1, kappa)
heavy: QVQLQESGPGLVKPSETLSLTCAVSGHSISHDHAWSWVRQPPGEGLEWIGFISYSGITNYNPSLQGRVTISRDNSKNTLYLQMNSLRAEDTAVYYCARSLARTTAMDYWGEGTLVTVSSAKTTPPSVYPLAPGSAAQTNSMVTLGCLVKGYFPEPVTVTWNSGSLSSGVHTFPAVLQSDLYTLSSSVTVPSSTWPSETVTCNVAHPASSTKVDKKIVPRDCGCKPCICEPNEVELVFIFPPKPKDVLTITLTPKVTCVVVDISKDDPEVQFSWFVDDVEVHTAQTQPREEQFNSTFRSVSELPIMHQDWLNGKEFKCRVMSAAFPAPIERTISKTKGRPKAPQVYTIPPPKEQMAKDKVSLTCMITDFFPEDITVEWQWNGQPAENYKNTQPIMDTDGSYFVYSKLNVQKSNWEAGNTFTCSVLHEGLHNHHTEKSLSHSPGK
light: not shown
notes: as for B1
B5: MB823 (antibody, mouse IgG1, kappa)
heavy: QVQLQESGPGLVKPSETLSLTCAVSGHSISHDHAWSWVRQPPGEGLEWIGFISYSGITNYNPSLQGRVTISRDNSKNTLYLQMNSLRAEDTAVYYCARSLARTTAMDYWGEGTLVTVSSAKTTPPSVYPLAPGSAAQTNSMVTLGCLVKGYFPEPVTVTWNSGSLSSGVHTFPAVLQSDLYTLSSSVTVPSSTWPSETVTCNVAHPASSTKVDKKIVPRDCGCKPCICEPNEVELVFIFPPKPKDVLTITLTPKVTCVVVDISKDDPEVQFSWFVDDVEVHTAQTQPREEQFNSTFRSVSELPIMHQDWLNGKEFKCRVNSDAFPAFIEKTISKTKGRPKAPQVYTIPPPKEQMAKDKVSLTCMITDFFPEDITVEWQWNGQPAENYKNTQPIMDTDGSYFVYSKLNVQKSNWEAGNTFTCSVLHEGLHNHHTEKSLSHSPGK
light: not shown
notes: as for B1
B6: MB820 (antibody, mouse IgG1, kappa)
heavy: QVQLQESGPGLVKPSETLSLTCAVSGHSISHDHAWSWVRQPPGEGLEWIGFISYSGITNYNPSLQGRVTISRDNSKNTLYLQMNSLRAEDTAVYYCARSLARTTAMDYWGEGTLVTVSSAKTTPPSVYPLAPGSAAQTNSMVTLGCLVKGYFPEPVTVTWNSGSLSSGVHTFPAVLQSDLYTLSSSVTVPSSTWPSETVTCNVAHPASSTKVDKKIVPRDCGCKPCICEPNEVELVFIFPPKPKDVLTITLTPKVTCVVVDISKDDPEVQFSWFVDDVEVHTAQTQPREEQFNSTFRSVSELPIMHQDWLNGKEFKCRVMSAAFPAPIYKTISKTKGRPKAPQVYTIPPPKEQMAKDKVSLTCMITDFFPEDITVEWQWNGQPAENYKNTQPIMDTDGSYFVYSKLNVQKSNWEAGNTFTCSVLHEGLHNHHTEKSLSHSPGK
light: not shown
notes: as for B1
B7: MB822 (antibody, mouse IgG1, kappa)
heavy: QVQLQESGPGLVKPSETLSLTCAVSGHSISHDHAWSWVRQPPGEGLEWIGFISYSGITNYNPSLQGRVTISRDNSKNTLYLQMNSLRAEDTAVYYCARSLARTTAMDYWGEGTLVTVSSAKTTPPSVYPLAPGSAAQTNSMVTLGCLVKGYFPEPVTVTWNSGSLSSGVHTFPAVLQSDLYTLSSSVTVPSSTWPSETVTCNVAHPASSTKVDKKIVPRDCGCKPCICEPNEVELVFIFPPKPKDVLTITLTPKVTCVVVDISKDDPEVQFSWFVDDVEVHTAQTQPREEQFNSTFRSVSELPIMHQDWLNGKEFKCRVNSDGFPAPIEKTISKTKGRPKAPQVYTIPPPKEQMAKDKVSLTCMITDFFPEDITVEWQWNGQPAENYKNTQPIMDTDGSYFVYSKLNVQKSNWEAGNTFTCSVLHEGLHNHHTEKSLSHSPGK
light: not shown
notes: as for B1
B8: MB818 (antibody, mouse IgG1, kappa)
heavy: QVQLQESGPGLVKPSETLSLTCAVSGHSISHDHAWSWVRQPPGEGLEWIGFISYSGITNYNPSLQGRVTISRDNSKNTLYLQMNSLRAEDTAVYYCARSLARTTAMDYWGEGTLVTVSSAKTTPPSVYPLAPGSAAQTNSMVTLGCLVKGYFPEPVTVTWNSGSLSSGVHTFPAVLQSDLYTLSSSVTVPSSTWPSETVTCNVAHPASSTKVDKKIVPRDCGCKPCICEPNEVELVFIFPPKPKDVLTITLTPKVTCVVVDISKDDPEVQFSWFVDDVEVHTAQTQPREEQFNSTFRSVSELPIMHQDWLNGKEFKCRVMSAAFPAFIEKTISKTKGRPKAPQVYTIPPPKEQMAKDKVSLTCMITDFFPEDITVEWQWNGQPAENYKNTQPIMDTDGSYFVYSKLNVQKSNWEAGNTFTCSVLHEGLHNHHTEKSLSHSPGK
light: not shown
notes: as for B1
B9: MB817 (antibody, mouse IgG1, kappa)
heavy: QVQLQESGPGLVKPSETLSLTCAVSGHSISHDHAWSWVRQPPGEGLEWIGFISYSGITNYNPSLQGRVTISRDNSKNTLYLQMNSLRAEDTAVYYCARSLARTTAMDYWGEGTLVTVSSAKTTPPSVYPLAPGSAAQTNSMVTLGCLVKGYFPEPVTVTWNSGSLSSGVHTFPAVLQSDLYTLSSSVTVPSSTWPSETVTCNVAHPASSTKVDKKIVPRDCGCKPCICEPNEVELVFIFPPKPKDVLTITLTPKVTCVVVDISKDDPEVQFSWFVDDVEVHTAQTQPREEQFNSTFRSVSELPIMHQDWLNGKEFKCRVMSAGFPAPIEKTISKTKGRPKAPQVYTIPPPKEQMAKDKVSLTCMITDFFPEDITVEWQWNGQPAENYKNTQPIMDTDGSYFVYSKLNVQKSNWEAGNTFTCSVLHEGLHNHHTEKSLSHSPGK
light: not shown
notes: as for B1

Tests used:
mouse FcγRII [1] = biological target: T1, mouse FcγRII (mouse, UniProt P08101 30-210); experiment: SPR (Biacore T200); KD of H237-mIgG1/MRAL-k0 / KD of variant
T1 construct: Extracellular domain with C-terminal His tag; also called mFcγRII; mFcgRII
T1 sequence: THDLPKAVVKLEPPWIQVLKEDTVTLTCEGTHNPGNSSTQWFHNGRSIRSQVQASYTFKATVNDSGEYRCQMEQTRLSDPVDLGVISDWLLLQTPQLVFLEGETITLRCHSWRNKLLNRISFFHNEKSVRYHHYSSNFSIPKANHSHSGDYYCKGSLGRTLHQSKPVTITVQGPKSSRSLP

mouse FcγRIII [2] = biological target: T2, mouse FcγRIII (mouse, UniProt P08508 31-215); experiment: as above
T2 construct: Extracellular domain with C-terminal His tag; also called mFcγRIII; mFcgRIII
T2 chain: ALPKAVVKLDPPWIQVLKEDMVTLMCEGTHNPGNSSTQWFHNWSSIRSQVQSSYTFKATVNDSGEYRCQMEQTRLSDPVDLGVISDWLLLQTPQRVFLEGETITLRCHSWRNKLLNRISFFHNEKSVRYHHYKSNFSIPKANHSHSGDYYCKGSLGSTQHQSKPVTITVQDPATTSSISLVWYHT

mouse FcγRII [3] = biological target: T1, mouse FcγRII; experiment: SPR (Biacore T200); KD of H237-MB630/MRAL-k0 / KD of variant
mouse FcγRIII [4] = biological target: T2, mouse FcγRIII; experiment: as above

| Binder | relative mFcγRII-binding activity (mIgG1 = 1) (mouse FcγRII [1]) [fold] | relative mFcγRIII-binding activity (mIgG1 = 1) (mouse FcγRIII [2]) [fold] | Relative mFcγRII-binding activity (MB630 = 1) (mouse FcγRII [3]) [fold] | Relative mFcγRIII-binding activity (MB630 = 1) (mouse FcγRIII [4]) [fold] |
| --- | --- | --- | --- | --- |
| B1 | 17.6 | 0.3 | 1.34 | 1.3 |
| B2 | 30.4 | 0.65 | 2.31 | 2.84 |
| B3 | 18.1 | 0.32 | 1.38 | 1.4 |
| B4 | 24.4 | 0.45 | 1.86 | 1.96 |
| B5 | 25 | 0.49 | 1.9 | 2.13 |
| B6 | 19.5 | 0.33 | 1.49 | 1.43 |
| B7 | 43.8 | 0.93 | 3.33 | 4.02 |
| B8 | 15.6 | 0.29 | 1.19 | 1.25 |
| B9 | 28.5 | 0.52 | 2.17 | 2.27 |

Source: US20150203577A1 (Chugai, published 2015)
